Target: T1, Rhed (RNA-binding heme domain of DGCR8), heme-bound (Homo sapiens, UniProt Q8WYQ5 285-478)
T1 sequence: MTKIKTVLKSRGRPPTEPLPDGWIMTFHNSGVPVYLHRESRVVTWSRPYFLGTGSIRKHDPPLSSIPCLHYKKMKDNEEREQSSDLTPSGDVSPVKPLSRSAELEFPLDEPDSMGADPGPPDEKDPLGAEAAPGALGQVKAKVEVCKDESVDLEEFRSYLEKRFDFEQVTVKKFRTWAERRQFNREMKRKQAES
Assay: EMSA

Binder: GGAGACUGAUUGUCAUAUGUCGUUUGUGGGAUCCGUCUCC (structured_RNA) [pri-miR-340 apical stem-loop fragment]
- Kd: 3.5 µM

Reference: paper doi:10.1101/2020.05.05.078014
